This is an account of results in patent publication US20020055130A1, “Method and product for regulating apoptosis” (National Jewish Center for Immunology and Respiratory …, priority 1997, published 2002).

The target of the assay is JNK kinase/SEK-1 (endogenous, Swiss 3T3 cells) (UniProt P47809). The assay can be described thus: cell-based or functional assay.
Sequence of JNK kinase/SEK-1 (endogenous, Swiss 3T3 cells) (P47809 2-397 limits assumed): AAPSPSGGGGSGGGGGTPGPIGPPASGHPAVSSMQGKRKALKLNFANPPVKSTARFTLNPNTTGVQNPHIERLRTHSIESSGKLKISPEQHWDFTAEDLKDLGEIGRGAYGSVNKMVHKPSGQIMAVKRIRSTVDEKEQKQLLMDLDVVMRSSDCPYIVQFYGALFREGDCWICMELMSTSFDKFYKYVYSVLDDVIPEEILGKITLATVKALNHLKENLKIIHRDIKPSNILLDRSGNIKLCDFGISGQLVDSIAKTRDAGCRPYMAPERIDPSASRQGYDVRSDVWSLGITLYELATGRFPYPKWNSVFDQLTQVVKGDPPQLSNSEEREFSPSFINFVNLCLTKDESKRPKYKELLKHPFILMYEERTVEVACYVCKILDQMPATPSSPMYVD

The substance “competitive inhibitory JNK/SAPK mutant JNK/SAPK(APF)” displayed an inhibition of Gal4/Jun activation in response to MEKKCOOH (luciferase reporter, transient transfection) of 65%.
